The values below come from patent US20220125947A1.

To fix the notation:
B1: VG9B47 (antibody, human IgG1, kappa, V domains shown)
VH: QVQLVQSGAEVKKPGSSVKVSCKASGGSFSNYAISWMRQAPGQGLEWMGGIIPFFGTPDYAQKFQGRVTITADKSTSTAYMELSSLRSEDTAVYYCSTGGGYGDYDYYYGINVWGQGTMVTVSS
VL: DIVMTQSPLSSPVDLGQPASISCRSSQSLVHSDGNTYLSWLQQRPGQPPRLLIYKISNRFSGVPDRFSGSGAGTDFTLKISRVEAEDVGVYYCMQAKEFPLTLGGGTKVDIKR
B2: VG9B96 (antibody, human IgG1, kappa, V domains shown)
VH: EVQLVQSGAEVKKPGSSVKVSCKASGGTFSNYAISWVRLAPGQGLEWMGGIIPIFSAGTYAQRFQGRVTITADKSTSTAYMELNSLRSEDTAVYYCSSNSGTYYDYYYGMDVWGQGTMVTVSS
VL: B1 VL with P12H, D14T, S57F, F60L, E98Q, L103F, D110E
B3: VG9B77 (antibody, human IgG1, kappa, V domains shown)
VH: EVQLVESGAEVMKPGSSVKVSCKASGGTFSSYAISWVRQAPEQGLEWMGGIIPFFGTADYAQKFQGRVTITADKSTNTAYMELTSLRSEDTAVYYCATATVTTDYYYGMDVWGQGTMVTVSS
VL: B1 VL with D1E, S10F, D14T, K55E, S61T, K97R, E98Q, L103F, D110E
B4: VG9B112 (antibody, human IgG1, kappa, V domains shown)
VH: QVQLQQSGPGLVKPSQTLSLTCAISGDSVSSNSAAWNWIRQSPSRGLEWLGGTYYRSKWFNNYAVSVKSRITINPDTSTNQFSLQLNSVTPADTAVYYCARGEWGLRDAFDIWGQGTMVTVSS
VL: DIQMTQSPSFLSASVGDRVIITCRASQGIHSYLAWYQQKPGKVPKLLIYVASTLQSGVPSRFSGSGSGTEFTLTISSLQPEDFATYYCQQLNSYPWTFGQGTKLEIKR
B5: VG9B386 (antibody, human IgG1, kappa, V domains shown)
VH: EVQLVESGGGLVKPGGSLRLSCAASGFTFSSYSMIWVRQAPGKGLEWVSSIGSSSTYIYYADSVRGRFTISRDNAKTSLYLQMNSLRAEDTAMYFCARDGETGGFDYWGQGILVTVSS
VL: EIVMTQSPGTLSLSPGERATLSCRASQSISRSYLAWYQQKPGQPPRLLIYGPSNRATGIPDRFSASGSGTDFTLTNSRLEPEDFAVYYCQQYGSLPLTFGGGTKVEIKR
B6: VG9B379 (antibody, human IgG1, lambda, V domains shown)
VH: EVQLVQSGPEVKKPGASVKVSCKASGYTFTGDYIHWVRQVPGQGLEWMGWINPNSGGTNYAQKFQGRVTMTRDTSISTAFMELSRLRSDDTAVYYCAREGGVAPAAPDAFDIWGQGTMVTVSS
VL: SSELTQDPAVSVALGQTVRITCQGDSLRSYYARWYQQKPGQAPVVVIYGKNNRPSGIPDRFSGSSSGNTASLTITGAQAEDEADYYCNSRDSSGNHRVFGGGTKLTVLG
B7: VG9B387 (antibody, human IgG1, lambda, V domains shown)
VH: EVQLVESGAEVKKPGASVKVSCKASGFTFTGYYLQWVRQAPGQGLEWMGWINPNSGYTDYAQRFQDRVTMTRDTSINTAYMELSRLRSDDTAVYYCARLDDAFDVWGQGTMVTVSS
VL: B6 VL with S2Y, S29N, R33I, V45L, Y48F, N68T, A77T, R97W
B8: VG9B392 (antibody, human IgG1, lambda, V domains shown)
VH: QVQLVQSGAEVKRPGASAKVSCKTSGYTFTGYYIHWVRQAPGQGLEWMGWINPNSGYTNSAQKFQGRVSMTRDTSISTVYMELSRLRSDDTAVYYCAREDDAFDIWGQGTLVTVSS
VL: B6 VL with V45L, N68D, Q78L, S92N, R97V, L105V
B9: VG9B114 (antibody, human IgG1, kappa, V domains shown)
VH: EVQLVESGGDLVQPGGSLRLSCAASGFTFSRYDMHWVRQATGKGLEWVSAIGSAGDTYYPGSVKGRFTISRENAKNSLYLQMNSLRAGDTAVYYCARGKWELRDAFDIWGQGTMVTVSS
VL: B4 VL with Q3V, I20T, V43A, G66R, W96Y
B10: VG9B81 (antibody, human IgG1, kappa, V domains shown)
VH: QVQLQESGPGLVKPSETLSLTCSVSGGSINTYYWSWFRQPAGKGLELIGRIYTSDNTNYNPSLKSRVTMSVDTSKNQFSLKLSSVTAADTAVYYCARYNWNYWYFDLWGRGTLVTVSS
VL: B4 VL with G16R, I20N, H30S, V43A, V50T, Q90H, W96Y, L104V
B11: VG9B208 (antibody, human IgG1, lambda, V domains shown)
VH: QVQLQESGPGLVKPSETLSLTCTVSGGSISGYYWSWIRQPPGKGLELIGYIFYSGSINYNPSLKNRVTISLDTSKNQFSLKLTSVTAADTAVYYCARVGKWELRSSFDIWGQGTMVTVSS
VL: QSVLTQPPSVSAAPGQKVTISCSGSTSNIGNNDVSWYQQLPGTAPKLLIYDNNKRPSGIPDRFSGSKSGTSATLGITGLQTGDEADYYCGTWDSSLSVWVFGGGTKLTVLG
B12: VG9B203 (antibody, human IgG1, lambda, V domains shown)
VH: QVQLVQSGPGLVKPSETLSLTCTVSGDSIGHYYWNWIRQPAGKGLEWIGRIYTSGSTNYNPSLKSRVTMSVDTSKNQFSLKLSSVTAADTAVYYCARSGGNFYWYFDLWGRGTLVTVSS
VL: B11 VL with T26S, D33Y, L40V, F63I, V98A, W99G, L107V
B13: VG9B372 (antibody, human IgG1, kappa, V domains shown)
VH: QVQLQESGPGLVKPSQTLSLTCTVSGGSISNGGFYWSWIRQHPGKGLEWLGYINYSGSTYYNPSLESRGTISLDTSKNQFSLKLRSVTAADTAVYYCARDRNYEWNFDLWGRGTLVTVSS
VL: EIVMTQSPATLSLSPGEGATLSCRASQSVSSYLAWYQQKPGQAPRLLVYDASNRATGIPARFSGSGSGTAFTLTITSLEPEDFVVYYCQQRSNWPLTFGGGTKLEIKR
B14: VG9B87 (antibody, human IgG1, kappa, V domains shown)
VH: QVQLVESGAEVKKPGASVKVSCKASGYTFTSEYIHWVRQAPGQGLEWMGIINPSGGSTSYAQRFQGRVTMTRDTSTSTVYMEVNSLRSEDTAVYYCARERGYSYGSFDYWGQGTLVTVSS
VL: EIVLTQSPSFLSASAGDRVTITCRASQGISSYLAWYQQKPEKAPKLLIYAASTLQSGVPSRFSGSGSGTEFTLTISSLQPEDFATYYCQQFNSYSLTFGGGTKLEIKR
B15: VG9B177 (antibody, human IgG1, lambda, V domains shown)
VH: QVQLQESGPGLVKPSETLSLTCTVSGGSINNYFWSWIRQPPGKGLEWIGYIFYSGSTNYNPSLKSRVTISIDTSKNQFSLKVNSVTAADTAVYYCARVGKWELRTAFDIWGQGTMVTVSS
VL: QSALTQPASVSGSPGQSITISCTGTSSDVADYNYVSWYQQHPGKAPKLMIYEVSNRPSGVSNRFSGSKSGNTASLTISGLQAEDEADYYCCSYTSSFTVVFGGGTKVTVLG
B16: VG9B147 (antibody, human IgG1, lambda, V domains shown)
VH: QVQLQESGPGLVNPSETLSLTCTVSGGSISGYFWNWIRQPPGKGLEWIGYIFYSGSTNYNPSLKSRVTISVDTSKNQFSLKLSSVTAADTAIYYCAREGKWELRSTFDIWGQGTMVTVSS
VL: B6 VL with R33T, V44I, V45L, K50E, S65R, S92T, S93G, G94D, N95H, R97L

Substitutions are numbered along the chain they refer to.

Chain of Vg5/Vd2 TCR on SKW3 cells (A0JD36 20-115): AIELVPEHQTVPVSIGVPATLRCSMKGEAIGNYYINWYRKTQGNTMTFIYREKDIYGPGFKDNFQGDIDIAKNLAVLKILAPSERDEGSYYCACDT
Chain of Vg9/Vd1 TCR on SKW3 cells (Q99603 21-122): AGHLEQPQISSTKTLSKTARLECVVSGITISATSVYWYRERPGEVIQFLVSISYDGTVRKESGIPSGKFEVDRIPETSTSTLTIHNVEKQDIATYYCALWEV

The first assay addresses Vg5/Vd2 TCR on SKW3 cells (UniProt A0JD36). Nature of the assay: flow cytometry DRC binding 37 C, SKW3 cells expressing Vg5/Vd2.
On to B1, for which the Max. Activity (fold over background) stood at 212.
The same measure, in the same setting: the result for B2 reads 224; that for B3, 148; that for B4, 217.
Turning to B5, the Max. Activity (fold over background) was 92.7.
On the same count and under the same terms, the value for B6 was 260; that for B7 was 261; that for B8 was 281.

Another assay concerns the target Vg9/Vd1 TCR on SKW3 cells (UniProt Q99603). Put plainly: flow cytometry DRC binding 37 C, SKW3 cells expressing Vg9/Vd1. In general terms: A flow cytometer gives signals particle by particle.
As to B1, the Max. Activity (fold over background) worked out at 308.
Still for that read-out and setting: the value for B2 was 245; that for B3 was 137.
B4 came in with a Max. Activity (fold over background) of 328.
On the same count and under the same terms, the result for B5 reads 389; that for B6, 295.
Same read-out and setting: the result for B7 reads 435.
Still for that read-out and setting: the value for B8 was 295.

The target in a further assay is Vg9/Vd2 TCR on SKW3_4 cells (UniProt Q99603). Nature of the assay: flow cytometry DRC binding 37 C, SKW3_4 cells expressing Vg9/Vd2.
Chain of Vg9/Vd2 TCR on SKW3_4 cells (Q99603 21-122, chain 1 of 2): as the sequence (Q99603 21-122) above
Chain of Vg9/Vd2 TCR on SKW3_4 cells (A0JD36 20-115, chain 2 of 2, further chain): as the sequence (A0JD36 20-115) above
Consider B1, for which the Max. Activity (fold over background) is 162.
B2 displayed a Max. Activity (fold over background) of 126.
In turn, B3 showed a Max. Activity (fold over background) of 102.
On the same count and under the same terms, the result for B4 reads 227; that for B5, 211; that for B6, 160.
The molecule B7 yielded a Max. Activity (fold over background) of 201.
The same measure, in the same setting: the value for B8 was 154.

The target of the next assay is Vg5/Vd2 T cell receptor expressed on SKW3 cells (UniProt A0JD36). Put plainly: flow cytometry, dose-response binding at 37 C, SKW3 cells expressing Vg5/Vd2.
Chain of Vg5/Vd2 T cell receptor expressed on SKW3 cells (A0JD36 20-115): as above
For B9, the Max. Activity (fold over background) came to 226.
As for B10, the Max. Activity (fold over background) is 77.
In the case of B11, the Max. Activity (fold over background) is 203.
On the same count and under the same terms, the value for B12 was 194; that for B13 was 171; that for B14 was 51.6.
Same read-out and setting: the value for B15 was 193; that for B16 was 69.8.

Another assay deals with Vg9/Vd1 T cell receptor expressed on SKW3 cells (UniProt Q99603). Put plainly: flow cytometry, dose-response binding at 37 C, SKW3 cells expressing Vg9/Vd1.
Chain of Vg9/Vd1 T cell receptor expressed on SKW3 cells (Q99603 21-122): as the sequence (Q99603 21-122) above
With B9, the Max. Activity (fold over background) is 8.38.
Still for that read-out and setting: the result for B10 reads 1.17.
On to B11, for which the Max. Activity (fold over background) is 2.15.
The same measure, in the same setting: the value for B12 was 1.3; that for B13 was 1.02.
Still for that read-out and setting: the value for B14 was 1.4; that for B15 was 1.28; that for B16 was 1.59.

The target of another assay is Vg9/Vd2 T cell receptor expressed on SKW3_4 cells (UniProt Q99603). Put plainly: flow cytometry, dose-response binding at 37 C, SKW3_4 cells expressing Vg9/Vd2.
Chain of Vg9/Vd2 T cell receptor expressed on SKW3_4 cells (Q99603 21-122, chain 1 of 2): as the sequence (Q99603 21-122) above
Chain of Vg9/Vd2 T cell receptor expressed on SKW3_4 cells (A0JD36 20-115, chain 2 of 2, further chain): as the sequence (A0JD36 20-115) above
Molecule B9 showed a Max. Activity (fold over background) of 176.
With B10, the Max. Activity (fold over background) was determined as 42.2.
B11: the Max. Activity (fold over background) was 177.
The molecule B12 registered a Max. Activity (fold over background) of 143.
B13 displayed a Max. Activity (fold over background) of 127.
Still for that read-out and setting: the result for B14 reads 139; that for B15, 161.
Still for that read-out and setting: the value for B16 was 30.5.
